Columns and labels:
[1] = target: T1, human ROR1 (full-length, on the cell surface) (human, UniProt Q01973 30-937); experiment: flow cytometry, A549 cells
T1 construct: whole, on cells; the tumour cell lines carry their own ROR1; also called Ba/F3-ROR1 cells; Jeko-1
Protocol: (§1) The affinities of the anti-human ROR1 humanized antibodies to Ba/F3-ROR1, Jeko-1, HT-29 and A549 cells were detected by flow cytometry. The specific experimental steps were as follows: the BaBF3-ROR1, Jeko-1, HT-29 and A549 cells were incubated with the purified humanized antibodies of different concentration gradients on ice for 30 minutes, and the anti-ROR1 antibody UC961 with human IgG1 and the anti-TNP antibody were used as positive and negative controls, respectively.

[2] = target: T1, human ROR1 (full-length, on the cell …); experiment: flow cytometry, Jeko-1 cells
Protocol: as §1

[3] = target: T1, human ROR1 (full-length, on the cell …); experiment: flow cytometry, Ba/F3-ROR1 cells
[4] = target: T1, human ROR1 (full-length, on the cell …); experiment: flow cytometry, HT-29 cells
Protocol: as §1

[5] = target: T1, human ROR1 (full-length, on the cell …); experiment: flow cytometry, Ba/F3-ROR1 cells; remark: listed apart in the source
Protocol: as §1

T1 sequence (Q01973 30-937): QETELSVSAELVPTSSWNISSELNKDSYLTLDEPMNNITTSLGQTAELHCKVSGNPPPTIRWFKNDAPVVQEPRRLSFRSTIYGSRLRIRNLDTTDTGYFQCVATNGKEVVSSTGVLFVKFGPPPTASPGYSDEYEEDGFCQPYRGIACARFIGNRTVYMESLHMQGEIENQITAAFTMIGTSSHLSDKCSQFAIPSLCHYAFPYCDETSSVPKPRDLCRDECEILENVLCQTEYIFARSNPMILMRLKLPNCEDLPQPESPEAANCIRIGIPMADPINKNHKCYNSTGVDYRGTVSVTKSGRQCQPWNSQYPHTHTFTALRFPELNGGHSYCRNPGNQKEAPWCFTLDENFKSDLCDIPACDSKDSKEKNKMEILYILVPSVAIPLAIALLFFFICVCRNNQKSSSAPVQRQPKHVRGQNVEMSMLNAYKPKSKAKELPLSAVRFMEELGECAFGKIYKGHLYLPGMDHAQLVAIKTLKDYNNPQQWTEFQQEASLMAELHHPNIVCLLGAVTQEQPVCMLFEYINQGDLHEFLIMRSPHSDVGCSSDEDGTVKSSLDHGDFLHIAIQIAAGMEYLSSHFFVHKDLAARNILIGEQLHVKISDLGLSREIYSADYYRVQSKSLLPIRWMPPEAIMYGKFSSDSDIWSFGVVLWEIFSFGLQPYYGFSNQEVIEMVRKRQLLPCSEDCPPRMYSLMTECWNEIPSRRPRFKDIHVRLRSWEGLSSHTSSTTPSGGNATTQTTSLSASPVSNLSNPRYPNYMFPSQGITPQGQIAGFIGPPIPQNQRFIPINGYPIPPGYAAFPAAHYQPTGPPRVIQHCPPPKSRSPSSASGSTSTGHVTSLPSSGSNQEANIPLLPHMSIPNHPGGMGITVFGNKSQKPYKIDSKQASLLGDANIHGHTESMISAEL

Row | Binder | EC50 [1] [pM] | EC50 [2] [pM] | EC50 [3] [pM] | EC50 [4] [pM] | EC50 [5] [pM]
1 | 19F6-Hu35V5 (antibody, human IgG1, kappa, V domains shown, humanized, human IgG1 / kappa) VH: QVQLQESGPGLVKPSQTLSLTCTVSGYSITSDYAWNWIRQFPGKGLEWIGYISYSGSIRYNPSLKSRVTISRDTSKNQFSLKLSSVTAADTAVYYCARGEITYYFDYWGQGTLVTVSS VL: ETTLTQSPAFMSATPGDKVTISCKASTDIDDDMNWYQQKPGKPPKLIISEGNTLRPGIPPRFSSSGYGTDFTFTINNIKSEDAATYYCLQSNDLPLTFGQGTKLEIKR | 160 | 130 | 170 | 170 | –
2 | 19F6-Hu35V4 (antibody, human IgG1, kappa, V domains shown, humanized, human IgG1 / kappa) VH: QVQLQESGPGLVKPSQTLSLTCTVSGYSITSDYAWNWIRQFPGKGLEWIGYISYSGSIRYNPSLKSRVTISRDTSKNQFSLKLSSVTAADTAVYYCARGEITYYFDYWGQGTLVTVSS VL: ETTLTQSPAFMSATPGDKVTISCKASTSIDNDMNWYQQKPGKPPKLIISEGNTLRPGIPPRFSSSGYGTDFTFTINKIESEDAATYYCLQSNDLPLTFGQGTKLEIKR | 150 | 200 | 280 | 300 | –
3 | 19F6-Hu25 (antibody, human IgG1, kappa, V domains shown, humanized, human IgG1 / kappa) VH: QVQLQESGPGLVKPSETLSLTCTVSGYSITSDYAWNWIRQPPGKGLEWMGYISYSGSIRYNPSLKDRITISRDTSKNQFSLKLSSVTAADTAVYYCARGEITYYFDYWGQGTLVTVSS VL: ETTLTQSPAFMSATPGDKVTISCKASTDIDDDMNWYQQKPGEPPKLIISEGNTLRPGIPPRFSSSGYGTDFTFTINNIESEDAADYYCLQSNDLPLTFGQGTKLEIKR | 130 | 190 | 610 | 80 | –
4 | 19F6-Hu35V9 (antibody, human IgG1, kappa, V domains shown, humanized, human IgG1 / kappa) VH: QVQLQESGPGLVKPSQTLSLTCTVSGYSITSDYAWNWIRQFPGKGLEWIGYISYSGSIRYNPSLKSRVTISRDTSKNQFSLKLSSVTAADTAVYYCARGEITYYFDYWGQGTLVTVSS VL: ETTLTQSPAFMSATPGDKVTISCKASTSIDDDMNWYQQKPGKPPKLIISEGNTLRPGIPPRFSSSGYGTDFTFTIRKIESEDAADYYCLQSNDLPLTFGQGTKLEIKR | 140 | 280 | 210 | 170 | –
5 | 38F8-Hu56 (antibody, human IgG1, kappa, V domains shown, humanized, human IgG1 / kappa) VH: EVQLVESGGGLVQPGGSLRLSCAASGFTFSNYAMSWVRQAPEKRLEWVASISSGGPTYYPDSVKGRFTVSRDNSKNTLYLQMNSLRAEDTAVYYCARGYRYDVNWYFDVWGAGTMVTVSS VL: DIQMTQSPSSLSASVGDRVTITCQASQDINSYLTWFQQKPGKSPKTLIHRANRLVTGVPSRFSGSGSGTDFTFTISSLQPEDIATYYCLQYDEFPYTFGGGTKVEIKR | 320 | 100 | – | 420 | 1090
6 | 38F8-Hu64 (antibody, human IgG1, kappa, V domains shown, humanized, human IgG1 / kappa) VH: QVQLVESGGGLVKPGGSLRLSCAASGFTFSNYAMSWVRQAPEKRLEWVASISSGGPTYYPDSVKGRFTISRDNAKNSLYLQMNSLRAEDTAVYYCARGYRYDVNWYFDVWGAGTMVTVSS VL: DIQMTQSPSSLSASVGDRVTITCQASQDISNYLTWFQQKPGKSPKTLIHRANRLVTGVPSRFSGSGSGTDFTFTISSLQPEDIATYYCLQYDEFPYTFGGGTKVEIKR | 310 | 90 | – | 420 | 1200
7 | 38F8-Hu67 (antibody, human IgG1, kappa, V domains shown, humanized, human IgG1 / kappa) VH: QVQLVESGGGLVKPGGSLRLSCAASGFTFSNYAMSWVRQAPEKRLEWVASISSGGPTYYPDSVKGRFTISRDNAKNSLYLQMNSLRAEDTAVYYCARGYRYDVNWYFDVWGAGTMVTVSS VL: DIQMTQSPSSLSASVGDRVTITCQASQDISNYLTWFQQKPGKSPKTLIHRANRLVTGVPSRFSGSGSGTDYTFTISSLQPEDIAIYYCLQYDEFPYTFGGGTKVEIKR | 400 | 100 | – | 610 | 840
8 | 38F8-Hu68 (antibody, human IgG1, kappa, V domains shown, humanized, human IgG1 / kappa) VH: QVQLVESGGGLVKPGGSLRLSCAASGFTFSNYAMSWVRQAPEKRLEWVASISSGGPTYYPDSVKGRFTISRDNAKNSLYLQMNSLRAEDTAVYYCARGYRYDVNWYFDVWGAGTMVTVSS VL: DIQMTQSPSSLSASVGDRVTITCQASQDINSYLTWFQQKPGKSPKTLIHRANRLVTGVPSRFSGSGSGTDYTFTISSLQPEDIAIYYCLQYDEFPYTFGGGTKVEIKR | 540 | 110 | – | 550 | 2190
9 | 38F8-Hu66 (antibody, human IgG1, kappa, V domains shown, humanized, human IgG1 / kappa) VH: QVQLVESGGGLVKPGGSLRLSCAASGFTFSNYAMSWVRQAPEKRLEWVASISSGGPTYYPDSVKGRFTISRDNAKNSLYLQMNSLRAEDTAVYYCARGYRYDVNWYFDVWGAGTMVTVSS VL: DIQMTQSPSSLSASVGDRVTITCQASQDINSYLTWFQQKPGKSPKTLIHRANRLVTGVPSRFSGSGSGTDFTFTISSLQPEDIATYYCLQYDEFPYTFGGGTKVEIKR | 350 | 110 | – | 440 | 930
10 | 38F8-Hu58 (antibody, human IgG1, kappa, V domains shown, humanized, human IgG1 / kappa) VH: EVQLVESGGGLVQPGGSLRLSCAASGFTFSNYAMSWVRQAPEKRLEWVASISSGGPTYYPDSVKGRFTVSRDNSKNTLYLQMNSLRAEDTAVYYCARGYRYDVNWYFDVWGAGTMVTVSS VL: DIQMTQSPSSLSASVGDRVTITCQASQDINSYLTWFQQKPGKSPKTLIHRANRLVTGVPSRFSGSGSGTDYTFTISSLQPEDIAIYYCLQYDEFPYTFGGGTKVEIKR | 320 | 90 | – | 430 | 1450

These reach a lower EC50 [1]. Values come first.

Row | EC50 [1] [pM] | EC50 [2] [pM] | EC50 [3] [pM] | EC50 [4] [pM] | EC50 [5] [pM] | Binder
11 | 90 | 210 | 330 | 70 | – | 19F6-Hu15 (antibody, human IgG1, kappa, V domains shown, humanized, human IgG1 / kappa) VH: QVQLQESGPGLVKPSETLSLTCTVTGYSITSDYAWNWIRQPPGKGLEWMGYISYSGSIRYKPSLKDRITISRDTSKNQFSLKLSSVTAADTAVYYCARGEITYYFDYWGQGTLVTVSS VL: ETTLTQSPAFMSATPGDKVTISCKASTDIDDDMNWYQQKPGEPPKLIISEGNTLRPGIPPRFSSSGYGTDFTFTINNIESEDAADYYCLQSNDLPLTFGQGTKLEIKR
12 | 100 | 190 | 190 | 180 | – | 19F6-Hu35V2 (antibody, human IgG1, kappa, V domains shown, humanized, human IgG1 / kappa) VH: QVQLQESGPGLVKPSQTLSLTCTVSGYSITSDYAWNWIRQFPGKGLEWIGYISYSGSIRYNPSLKSRVTISRDTSKNQFSLKLSSVTAADTAVYYCARGEITYYFDYWGQGTLVTVSS VL: ETTLTQSPAFMSATPGDKVTISCKASTDIDSDMNWYQQKPGEPPKLIISEGNTLRPGIPPRFSSSGYGTDFTFTINKIKSEDAATYYCLQSNDLPLTFGQGTKLEIKR
13 | 90 | 180 | 180 | 120 | – | 19F6-Hu35V8 (antibody, human IgG1, kappa, V domains shown, humanized, human IgG1 / kappa) VH: QVQLQESGPGLVKPSQTLSLTCTVSGYSITSDYAWNWIRQFPGKGLEWIGYISYSGSIRYNPSLKSRVTISRDTSKNQFSLKLSSVTAADTAVYYCARGEITYYFDYWGQGTLVTVSS VL: ETTLTQSPAFMSATPGDKVTISCKASTDIDNDMNWYQQKPGKPPKLIISEGNTLRPGIPPRFSSSGYGTDFTFTINNIQSEDAATYYCLQSNDLPLTFGQGTKLEIKR
14 | 100 | 220 | 190 | 180 | – | 19F6-Hu35V7 (antibody, human IgG1, kappa, V domains shown, humanized, human IgG1 / kappa) VH: QVQLQESGPGLVKPSQTLSLTCTVSGYSITSDYAWNWIRQFPGKGLEWIGYISYSGSIRYNPSLKSRVTISRDTSKNQFSLKLSSVTAADTAVYYCARGEITYYFDYWGQGTLVTVSS VL: ETTLTQSPAFMSATPGDKVTISCKASTSIDDDMNWYQQKPGKPPKLIISEGNTLRPGIPPRFSSSGYGTDFTFTINNIQSEDAATYYCLQSNDLPLTFGQGTKLEIKR
15 | 80 | 200 | 170 | 160 | – | 19F6-Hu35V6 (antibody, human IgG1, kappa, V domains shown, humanized, human IgG1 / kappa) VH: QVQLQESGPGLVKPSQTLSLTCTVSGYSITSDYAWNWIRQFPGKGLEWIGYISYSGSIRYNPSLKSRVTISRDTSKNQFSLKLSSVTAADTAVYYCARGEITYYFDYWGQGTLVTVSS VL: ETTLTQSPAFMSATPGDKVTISCKASTDIDNDMNWYQQKPGKPPKLIISEGNTLRPGIPPRFSSSGYGTDFTFTINNIKSEDAATYYCLQSNDLPLTFGQGTKLEIKR
16 | 100 | 180 | 180 | 170 | – | 19F6-Hu35V3 (antibody, human IgG1, kappa, V domains shown, humanized, human IgG1 / kappa) VH: QVQLQESGPGLVKPSQTLSLTCTVSGYSITSDYAWNWIRQFPGKGLEWIGYISYSGSIRYNPSLKSRVTISRDTSKNQFSLKLSSVTAADTAVYYCARGEITYYFDYWGQGTLVTVSS VL: ETTLTQSPAFMSATPGDKVTISCKASTSIDDDMNWYQQKPGKPPKLIISEGNTLRPGIPPRFSSSGYGTDFTFTINKIESEDAATYYCLQSNDLPLTFGQGTKLEIKR
17 | 80 | 150 | 380 | 90 | – | 19F6-Hu35 (antibody, human IgG1, kappa, V domains shown, humanized, human IgG1 / kappa) VH: QVQLQESGPGLVKPSQTLSLTCTVSGYSITSDYAWNWIRQFPGKGLEWIGYISYSGSIRYNPSLKSRVTISRDTSKNQFSLKLSSVTAADTAVYYCARGEITYYFDYWGQGTLVTVSS VL: ETTLTQSPAFMSATPGDKVTISCKASTDIDDDMNWYQQKPGEPPKLIISEGNTLRPGIPPRFSSSGYGTDFTFTINNIESEDAADYYCLQSNDLPLTFGQGTKLEIKR

Reference: patent publication US20240018237A1 (SICHUAN KELUN BIOTECH BIOPHARMACEUTICAL, published 2024)
